In patent US20140087995A1 (published 2014):
Numbered stars: 1 amine (or outer) side, 2 acyl side, 3 side chain; on linkers, the order of the positions; unused ones are H or OH. Bridge positions count the residues as written; N and C are the ends. Side chains are listed from the residue outwards. Ends that are not written are not given here. * marks the point of attachment. C20 diacid = O=C(O)CCCCCCCCCCCCCCCCCCC(=O)*; C18 diacid = O=C(O)CCCCCCCCCCCCCCCCC(=O)*; γGlu = O=C(O)[C@H](CCC(=O)[*:2])N[*:1]; C14 diacid = O=C(O)CCCCCCCCCCCCC(=O)*

What was measured:
rat calcitonin receptor [1] = biological target: T1, rat calcitonin receptor (rat, UniProt P32214 25-516); experiment: ratio of IC50 on rat calcitonin receptor (Assay VIII) to IC50 on rat amylin receptor (Assay VI)
T1 construct: whole, on cells; Used as membranes prepared from the transfected cells (Assay VIII); also called rCTR; rat calcitonin (a) receptor
T1 sequence (looked up): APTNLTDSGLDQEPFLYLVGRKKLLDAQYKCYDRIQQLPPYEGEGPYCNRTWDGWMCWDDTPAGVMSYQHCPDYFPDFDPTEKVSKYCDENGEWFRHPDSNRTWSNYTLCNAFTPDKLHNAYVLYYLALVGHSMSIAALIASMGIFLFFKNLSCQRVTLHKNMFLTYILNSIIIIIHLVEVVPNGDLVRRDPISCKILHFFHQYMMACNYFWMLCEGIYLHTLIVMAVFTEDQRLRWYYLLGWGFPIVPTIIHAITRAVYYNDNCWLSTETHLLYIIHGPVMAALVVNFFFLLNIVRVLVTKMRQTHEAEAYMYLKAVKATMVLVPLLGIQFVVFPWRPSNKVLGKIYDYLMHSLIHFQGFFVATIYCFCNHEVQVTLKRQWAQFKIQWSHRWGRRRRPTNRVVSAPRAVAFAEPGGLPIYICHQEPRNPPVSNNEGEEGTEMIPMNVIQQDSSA

[2] = biological target: T2, rat amylin receptor (rat calcitonin receptor + rat RAMP 3) (rat, UniProt P32214 25-516; Q9JJ73 23-147); experiment: SPA competition binding, displacement of 125I-rat amylin from membranes of BHK tk'ts 13 cells transfected with rat calcitonin receptor + rat RAMP 3 (Assay VI)
T2 construct: whole, on cells; Used as membranes prepared from the transfected cells (Assay VI); also called rAmylin-R; rat amylin 3(a) receptor
T2 sequence (looked up) 1: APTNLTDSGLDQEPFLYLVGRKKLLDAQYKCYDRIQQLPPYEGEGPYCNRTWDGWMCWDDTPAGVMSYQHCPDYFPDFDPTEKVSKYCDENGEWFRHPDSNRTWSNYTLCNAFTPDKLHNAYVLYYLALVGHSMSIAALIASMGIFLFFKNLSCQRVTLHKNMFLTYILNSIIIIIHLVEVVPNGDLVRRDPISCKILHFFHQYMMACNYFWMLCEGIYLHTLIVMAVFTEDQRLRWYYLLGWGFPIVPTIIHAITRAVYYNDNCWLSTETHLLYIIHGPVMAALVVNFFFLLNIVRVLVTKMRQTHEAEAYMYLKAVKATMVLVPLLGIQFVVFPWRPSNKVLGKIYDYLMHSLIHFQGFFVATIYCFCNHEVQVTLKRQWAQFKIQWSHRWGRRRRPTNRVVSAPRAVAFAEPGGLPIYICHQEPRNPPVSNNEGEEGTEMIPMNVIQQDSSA
T2 sequence (looked up) 2: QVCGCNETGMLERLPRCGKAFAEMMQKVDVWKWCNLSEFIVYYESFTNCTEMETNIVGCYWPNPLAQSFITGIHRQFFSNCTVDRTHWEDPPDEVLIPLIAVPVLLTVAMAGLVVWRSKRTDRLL

rat calcitonin receptor [3] = biological target: T1, rat calcitonin receptor; experiment: SPA competition binding, displacement of 125I-calcitonin from membranes of BHK tk'ts 13 cells transfected with rat calcitonin receptor (Assay VIII)
[4] = biological target: T3, human calcitonin receptor (human, UniProt P30988 25-474); experiment: ratio of IC50 on human calcitonin receptor (Assay VII) to IC50 on human amylin receptor (Assay V)
T3 construct: whole, on cells; Used as membranes prepared from the transfected cells (Assay VII); also called hCTR; hCT
T3 sequence (looked up): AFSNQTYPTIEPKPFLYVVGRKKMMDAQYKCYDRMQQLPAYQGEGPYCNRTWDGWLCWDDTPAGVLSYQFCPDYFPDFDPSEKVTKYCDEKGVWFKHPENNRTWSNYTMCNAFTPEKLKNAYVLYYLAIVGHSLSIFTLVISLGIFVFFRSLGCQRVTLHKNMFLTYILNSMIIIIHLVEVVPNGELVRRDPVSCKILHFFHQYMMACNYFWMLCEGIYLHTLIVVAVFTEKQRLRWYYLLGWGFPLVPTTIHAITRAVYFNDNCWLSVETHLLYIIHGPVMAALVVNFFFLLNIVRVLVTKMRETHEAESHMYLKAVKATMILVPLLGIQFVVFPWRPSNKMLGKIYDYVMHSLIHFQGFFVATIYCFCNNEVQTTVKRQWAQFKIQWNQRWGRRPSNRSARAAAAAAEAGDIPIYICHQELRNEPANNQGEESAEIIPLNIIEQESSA
Description: The resulting pellet was resuspended, homogenized and centrifuged (20.000 rpm, 15 min) in a buffer containing 20 mM Na-HEPES and 0.1 mM EDTA (pH 7.4, buffer 2). The resulting pellet was resuspended in buffer 2 and protein concentration was measured (BCA protein Assay, Pierce). The homogenate was kept cold during the whole procedure. The membranes were kept at −80° C. until use. The assay was performed in a 384 well Optiplate (PerkinElmer) in a total volume of 40 ul. Membranes were mixed with SPA beads. Final concentration of membranes 35 ng/μL final and SPA beads was 0.05 mg/well. Test-compounds were dissolved in DMSO and further diluted in assay buffer (50 mM Hepes, pH 7.4, 1 mM CaCl2, 5 mM MgCl₂, 0.1% OA and 0.02% Tween20). […] The final mixture was incubated with shaking at 400 rpm for 120 min at 25° C. prior to centrifugation (1500 rpm, 10 min). Samples were analyzed on TopCounter™ (Packard). The IC₅₀ was calculated using (one site binding competition analysis) GraphPad Prism5 as a measure of receptor affinity.
Membranes were prepared in the following way; the cells were rinsed with PBS and incubated with Versene for approximately 5 min before harvesting. The cells were flushed with PBS and the cell-suspension was centrifuged for 5 min at 1000 rpm. Cells were homogenized (Ultrathurrax) in a buffer containing 20 mM Na-HEPES and 10 mM EDTA (pH 7.4) and centrifuged at 20.000 rpm for 15 min. The resulting pellet was resuspended, homogenized and centrifuged (20.000 rpm, 15 min) in a buffer containing 20 mM Na-HEPES and 0.1 mM EDTA (pH 7.4, buffer 2). The resulting pellet was resuspended in buffer 2 and protein concentration was measured (BCA protein Assay, Pierce). The homogenate was kept cold during the whole procedure. The membranes were kept at −80° C. until use. Assay was performed in a 384 well Optiplate (PerkinElmer) in a total volume of 40 ul. Membranes were mixed with SPA beads.

| Binder | Ratio rCT/rAmylin binding (rat calcitonin receptor [1]) | IC50 [2] [nM] | IC50 (rat calcitonin receptor [3]) [nM] | Ratio hCT/hAmylin binding [4] |
| --- | --- | --- | --- | --- |
| K([γGlu-γGlu-C20 diacid])CNTATCATQRLAEFLRHSSPNFGAIPSSTNVGPRTY-NH2 (disulfide 2-7; N-terminus assumed; SMILES CC[C@H](C)[C@H](NC(=O)[C@H](C)NC(=O)CNC(=O)[C@H](Cc1ccccc1)NC(=O)[C@H](CC(N)=O)NC(=O)[C@@H]1CCCN1C(=O)[C@H](CO)NC(=O)[C@H](CO)NC(=O)[C@H](Cc1c[nH]cn1)NC(=O)[C@H](CCCNC(=N)N)NC(=O)[C@H](CC(C)C)NC(=O)[C@H](Cc1ccccc1)NC(=O)[C@H](CCC(=O)O)NC(=O)[C@H](C)NC(=O)[C@H](CC(C)C)NC(=O)[C@H](CCCNC(=N)N)NC(=O)[C@H](CCC(N)=O)NC(=O)[C@@H](NC(=O)[C@H](C)NC(=O)[C@@H]1CSSC[C@H](NC(=O)[C@@H](N)CCCCNC(=O)CC[C@H](NC(=O)CC[C@H](NC(=O)CCCCCCCCCCCCCCCCCCC(=O)O)C(=O)O)C(=O)O)C(=O)N[C@@H](CC(N)=O)C(=O)N[C@@H]([C@@H](C)O)C(=O)N[C@@H](C)C(=O)N[C@@H]([C@@H](C)O)C(=O)N1)[C@@H](C)O)C(=O)N1CCC[C@H]1C(=O)N[C@@H](CO)C(=O)N[C@@H](CO)C(=O)N[C@H](C(=O)N[C@@H](CC(N)=O)C(=O)N[C@H](C(=O)NCC(=O)N1CCC[C@H]1C(=O)N[C@@H](CCCNC(=N)N)C(=O)N[C@H](C(=O)N[C@@H](Cc1ccc(O)cc1)C(N)=O)[C@@H](C)O)C(C)C)[C@@H](C)O, not restated for each compound; also called compound 110) | 113 | 0.339 | 38.3 | 53.6 |
| K([γGlu-C20 diacid])CNTATCATQRLADFLRHSSPNFGAIPSSTNVGPRTY-NH2 (disulfide 2-7; N-terminus assumed; SMILES CC[C@H](C)[C@H](NC(=O)[C@H](C)NC(=O)CNC(=O)[C@H](Cc1ccccc1)NC(=O)[C@H](CC(N)=O)NC(=O)[C@@H]1CCCN1C(=O)[C@H](CO)NC(=O)[C@H](CO)NC(=O)[C@H](Cc1c[nH]cn1)NC(=O)[C@H](CCCNC(=N)N)NC(=O)[C@H](CC(C)C)NC(=O)[C@H](Cc1ccccc1)NC(=O)[C@H](CC(=O)O)NC(=O)[C@H](C)NC(=O)[C@H](CC(C)C)NC(=O)[C@H](CCCNC(=N)N)NC(=O)[C@H](CCC(N)=O)NC(=O)[C@@H](NC(=O)[C@H](C)NC(=O)[C@@H]1CSSC[C@H](NC(=O)[C@@H](N)CCCCNC(=O)CC[C@H](NC(=O)CCCCCCCCCCCCCCCCCCC(=O)O)C(=O)O)C(=O)N[C@@H](CC(N)=O)C(=O)N[C@@H]([C@@H](C)O)C(=O)N[C@@H](C)C(=O)N[C@@H]([C@@H](C)O)C(=O)N1)[C@@H](C)O)C(=O)N1CCC[C@H]1C(=O)N[C@@H](CO)C(=O)N[C@@H](CO)C(=O)N[C@H](C(=O)N[C@@H](CC(N)=O)C(=O)N[C@H](C(=O)NCC(=O)N1CCC[C@H]1C(=O)N[C@@H](CCCNC(=N)N)C(=O)N[C@H](C(=O)N[C@@H](Cc1ccc(O)cc1)C(N)=O)[C@@H](C)O)C(C)C)[C@@H](C)O, not restated for each compound) | 116 | 0.504 | 58.5 | 151 |
| K([γGlu-C14 diacid])CNTATCATQRLANFLRHSSPNFGAIPSSTNVGHNTY-NH2 (disulfide 2-7; N-terminus assumed; SMILES CC[C@H](C)[C@H](NC(=O)[C@H](C)NC(=O)CNC(=O)[C@H](Cc1ccccc1)NC(=O)[C@H](CC(N)=O)NC(=O)[C@@H]1CCCN1C(=O)[C@H](CO)NC(=O)[C@H](CO)NC(=O)[C@H](Cc1c[nH]cn1)NC(=O)[C@H](CCCNC(=N)N)NC(=O)[C@H](CC(C)C)NC(=O)[C@H](Cc1ccccc1)NC(=O)[C@H](CC(N)=O)NC(=O)[C@H](C)NC(=O)[C@H](CC(C)C)NC(=O)[C@H](CCCNC(=N)N)NC(=O)[C@H](CCC(N)=O)NC(=O)[C@@H](NC(=O)[C@H](C)NC(=O)[C@@H]1CSSC[C@H](NC(=O)[C@@H](N)CCCCNC(=O)CC[C@H](NC(=O)CCCCCCCCCCCCC(=O)O)C(=O)O)C(=O)N[C@@H](CC(N)=O)C(=O)N[C@@H]([C@@H](C)O)C(=O)N[C@@H](C)C(=O)N[C@@H]([C@@H](C)O)C(=O)N1)[C@@H](C)O)C(=O)N1CCC[C@H]1C(=O)N[C@@H](CO)C(=O)N[C@@H](CO)C(=O)N[C@H](C(=O)N[C@@H](CC(N)=O)C(=O)N[C@H](C(=O)NCC(=O)N[C@@H](Cc1c[nH]cn1)C(=O)N[C@@H](CC(N)=O)C(=O)N[C@H](C(=O)N[C@@H](Cc1ccc(O)cc1)C(N)=O)[C@@H](C)O)C(C)C)[C@@H](C)O, not restated for each compound) [N^ε1-[(4S)-4-carboxy-4-(13-carboxytridecanoylamino)butanoyl]-[Arg17,Pro21,Pro27,His34]-h-amylin] | 280 | 2.52 | 707 | 23.5 |
| K([γGlu-C18 diacid])CNTATCATQRLANFLRHSSPNFGAIPSSTNVGHNTY-NH2 (disulfide 2-7; N-terminus assumed; SMILES CC[C@H](C)[C@H](NC(=O)[C@H](C)NC(=O)CNC(=O)[C@H](Cc1ccccc1)NC(=O)[C@H](CC(N)=O)NC(=O)[C@@H]1CCCN1C(=O)[C@H](CO)NC(=O)[C@H](CO)NC(=O)[C@H](Cc1c[nH]cn1)NC(=O)[C@H](CCCNC(=N)N)NC(=O)[C@H](CC(C)C)NC(=O)[C@H](Cc1ccccc1)NC(=O)[C@H](CC(N)=O)NC(=O)[C@H](C)NC(=O)[C@H](CC(C)C)NC(=O)[C@H](CCCNC(=N)N)NC(=O)[C@H](CCC(N)=O)NC(=O)[C@@H](NC(=O)[C@H](C)NC(=O)[C@@H]1CSSC[C@H](NC(=O)[C@@H](N)CCCCNC(=O)CC[C@H](NC(=O)CCCCCCCCCCCCCCCCC(=O)O)C(=O)O)C(=O)N[C@@H](CC(N)=O)C(=O)N[C@@H]([C@@H](C)O)C(=O)N[C@@H](C)C(=O)N[C@@H]([C@@H](C)O)C(=O)N1)[C@@H](C)O)C(=O)N1CCC[C@H]1C(=O)N[C@@H](CO)C(=O)N[C@@H](CO)C(=O)N[C@H](C(=O)N[C@@H](CC(N)=O)C(=O)N[C@H](C(=O)NCC(=O)N[C@@H](Cc1c[nH]cn1)C(=O)N[C@@H](CC(N)=O)C(=O)N[C@H](C(=O)N[C@@H](Cc1ccc(O)cc1)C(N)=O)[C@@H](C)O)C(C)C)[C@@H](C)O, not restated for each compound) [N^ε1-[(4S)-4-carboxy-4-(17-carboxyheptadecanoylamino)butanoyl]-[Arg17,Pro21,Pro27,His34]-h-amylin] | 40.3 | 1.17 | 47 | 59.4 |
